The chains are these.
B1: SFRS1 (parent)
chain: YSPRRSRGSPRYSPRHSRSRSRT
B2: TPD52L2 (parent)
chain: EAEEEELRAELTKVEEEIVTLRQV
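Note: lentivirally expressed fusions sorted by FACS into six bins by GFP to DsRed ratio, PSI derived from sequencing read proportions per bin multiplied by bin number.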

Variants of B1 are the subject of one data set. As to the kind of experiment: protein stability index of a GFP-peptide fusion (GPS, HEK-293T) (PSI 1-6); higher = more stable. The note with it: c terminus: native.
As for YSPRRSRGSPRYSPRHSFSRSRT [R18F], the protein stability index stood at 2.42.
Still for that read-out and setting: under YSPRRSRGSPRYSPRHSNSRSRT [R18N] stands 3.5.
Still for that read-out and setting: the result for YSPRRSRGSPRYSPRHSPSRSRT [R18P] reads 2.52; that for YSPRRSRGSPRYSPRHSQSRSRT [R18Q], 3.27.
Still for that read-out and setting: under YSPRRSRGSPRYSPRHSYSRSRT [R18Y] stands 3.07; under YSPRRSRGSPRYSPRHSGSRSRT [R18G], 3.27.
Regarding YSPRRSRGSPRYSPRHSTSRSRT [R18T], the protein stability index amounted to 3.46.
On the same count and under the same terms, under YSPRRSRGSPRYSPRHSLSRSRT [R18L] stands 3.44; under YSPRRSRGSPRYSPRHSISRSRT [R18I], 3.43; under YSPRRSRGSPRYSPRHSKSRSRT [R18K], 2.94.
On the same count and under the same terms, the result for YSPRRSRGSPRYSPRHSHSRSRT [R18H] reads 3.28; that for YSPRRSRGSPRYSPRHSWSRSRT [R18W], 2.93.
Still for that read-out and setting: the result for YSPRRSRGSPRYSPRHSSSRSRT [R18S] reads 2.9.

In a further data set the parent is B2. Described as above. Particulars: c terminus: a fixed tail appended.
For EAEFEELRAELTKVEEEIVTLRQV [E4F], the protein stability index turned out to be 2.79.
Same read-out and setting: the result for EAEKEELRAELTKVEEEIVTLRQV [E4K] reads 4.13; that for EAEMEELRAELTKVEEEIVTLRQV [E4M], 3.42; that for EAENEELRAELTKVEEEIVTLRQV [E4N], 4.34.
Same read-out and setting: the result for EAEAEELRAELTKVEEEIVTLRQV [E4A] reads 3.77; that for EAELEELRAELTKVEEEIVTLRQV [E4L], 3.81; that for EAEIEELRAELTKVEEEIVTLRQV [E4I], 3.73.
Still for that read-out and setting: the result for EAEGEELRAELTKVEEEIVTLRQV [E4G] reads 3.23.
Turning to EAESEELRAELTKVEEEIVTLRQV [E4S], the protein stability index stood at 3.41.
Same read-out and setting: under EAEHEELRAELTKVEEEIVTLRQV [E4H] stands 3.21; under EAEDEELRAELTKVEEEIVTLRQV [E4D], 3.89.
The same measure, in the same setting: the result for EAEPEELRAELTKVEEEIVTLRQV [E4P] reads 3.68.
Still for that read-out and setting: under EAEVEELRAELTKVEEEIVTLRQV [E4V] stands 3.63.
In the case of EAEQEELRAELTKVEEEIVTLRQV [E4Q], the protein stability index was found to be 4.02.
Same read-out and setting: the result for EAECEELRAELTKVEEEIVTLRQV [E4C] reads 2.93.
The same measure, in the same setting: the result for EAETEELRAELTKVEEEIVTLRQV [E4T] reads 3.75; that for EAEREELRAELTKVEEEIVTLRQV [E4R], 3.76; that for EAEYEELRAELTKVEEEIVTLRQV [E4Y], 2.25.
Same read-out and setting: the result for EAEWEELRAELTKVEEEIVTLRQV [E4W] reads 2.93; that for RAEEEELRAELTKVEEEIVTLRQV [E1R], 2.63; that for IAEEEELRAELTKVEEEIVTLRQV [E1I], 1.94.
As for YAEEEELRAELTKVEEEIVTLRQV [E1Y], the protein stability index is 3.35.
Still for that read-out and setting: under MAEEEELRAELTKVEEEIVTLRQV [E1M] stands 2.53; under AAEEEELRAELTKVEEEIVTLRQV [E1A], 3.63.
The same measure, in the same setting: the result for FAEEEELRAELTKVEEEIVTLRQV [E1F] reads 2.
VAEEEELRAELTKVEEEIVTLRQV [E1V]: the protein stability index is 3.58.
Still for that read-out and setting: the result for DAEEEELRAELTKVEEEIVTLRQV [E1D] reads 3.74; that for WAEEEELRAELTKVEEEIVTLRQV [E1W], 2.01.
Same read-out and setting: under HAEEEELRAELTKVEEEIVTLRQV [E1H] stands 3.07.
In the case of CAEEEELRAELTKVEEEIVTLRQV [E1C], the protein stability index amounted to 2.89.
Same read-out and setting: under GAEEEELRAELTKVEEEIVTLRQV [E1G] stands 3.02.
Regarding PAEEEELRAELTKVEEEIVTLRQV [E1P], the protein stability index is 3.43.
Same read-out and setting: under QAEEEELRAELTKVEEEIVTLRQV [E1Q] stands 3.76; under SAEEEELRAELTKVEEEIVTLRQV [E1S], 2.97.
Same read-out and setting: under KAEEEELRAELTKVEEEIVTLRQV [E1K] stands 3.06.
Same read-out and setting: the result for LAEEEELRAELTKVEEEIVTLRQV [E1L] reads 2.57; that for NAEEEELRAELTKVEEEIVTLRQV [E1N], 2.5; that for TAEEEELRAELTKVEEEIVTLRQV [E1T], 2.79.
As for EAVEEELRAELTKVEEEIVTLRQV [E3V], the protein stability index turned out to be 3.22.
Still for that read-out and setting: the result for EAFEEELRAELTKVEEEIVTLRQV [E3F] reads 2.45; that for EAMEEELRAELTKVEEEIVTLRQV [E3M], 2.71.
On the same count and under the same terms, under EAQEEELRAELTKVEEEIVTLRQV [E3Q] stands 2.73; under EACEEELRAELTKVEEEIVTLRQV [E3C], 2.65.
Take EATEEELRAELTKVEEEIVTLRQV [E3T]: the protein stability index worked out at 2.83.
Still for that read-out and setting: the result for EAKEEELRAELTKVEEEIVTLRQV [E3K] reads 3.18.
The same measure, in the same setting: the result for EAHEEELRAELTKVEEEIVTLRQV [E3H] reads 3.08.
The same measure, in the same setting: the result for EAWEEELRAELTKVEEEIVTLRQV [E3W] reads 3.43.
For the variant EANEEELRAELTKVEEEIVTLRQV [E3N], the protein stability index stood at 3.1.
On the same count and under the same terms, the result for EAYEEELRAELTKVEEEIVTLRQV [E3Y] reads 2.86.
With EALEEELRAELTKVEEEIVTLRQV [E3L], the protein stability index is 2.76.
Same read-out and setting: under EADEEELRAELTKVEEEIVTLRQV [E3D] stands 4.29.
The same measure, in the same setting: under EASEEELRAELTKVEEEIVTLRQV [E3S] stands 3.63.
For EAAEEELRAELTKVEEEIVTLRQV [E3A], the protein stability index stood at 3.04.
The same measure, in the same setting: the result for EAGEEELRAELTKVEEEIVTLRQV [E3G] reads 3.52.
On the same count and under the same terms, under EAREEELRAELTKVEEEIVTLRQV [E3R] stands 3.04.
Still for that read-out and setting: the result for EAPEEELRAELTKVEEEIVTLRQV [E3P] reads 2.92; that for EAIEEELRAELTKVEEEIVTLRQV [E3I], 2.79; that for EWEEEELRAELTKVEEEIVTLRQV [A2W], 2.88.
Consider EKEEEELRAELTKVEEEIVTLRQV [A2K], for which the protein stability index was determined as 3.04.
On the same count and under the same terms, the result for EYEEEELRAELTKVEEEIVTLRQV [A2Y] reads 3.1; that for EQEEEELRAELTKVEEEIVTLRQV [A2Q], 4.57.
Still for that read-out and setting: the result for EVEEEELRAELTKVEEEIVTLRQV [A2V] reads 3.3.
In the case of ECEEEELRAELTKVEEEIVTLRQV [A2C], the protein stability index came out at 3.17.
Still for that read-out and setting: the result for EPEEEELRAELTKVEEEIVTLRQV [A2P] reads 4.03; that for EIEEEELRAELTKVEEEIVTLRQV [A2I], 2.67; that for ELEEEELRAELTKVEEEIVTLRQV [A2L], 2.93.
Same read-out and setting: under EMEEEELRAELTKVEEEIVTLRQV [A2M] stands 2.8; under EDEEEELRAELTKVEEEIVTLRQV [A2D], 4.7.
Consider EEEEEELRAELTKVEEEIVTLRQV [A2E], for which the protein stability index was 4.6.
Still for that read-out and setting: under EHEEEELRAELTKVEEEIVTLRQV [A2H] stands 3.23.
On the same count and under the same terms, the result for ENEEEELRAELTKVEEEIVTLRQV [A2N] reads 4.25; that for EREEEELRAELTKVEEEIVTLRQV [A2R], 3.29.
As to ETEEEELRAELTKVEEEIVTLRQV [A2T], the protein stability index was determined as 2.8.
Regarding EFEEEELRAELTKVEEEIVTLRQV [A2F], the protein stability index was found to be 3.45.
Same read-out and setting: the result for ESEEEELRAELTKVEEEIVTLRQV [A2S] reads 3.42.
Still for that read-out and setting: under EGEEEELRAELTKVEEEIVTLRQV [A2G] stands 4.06; under EAEEGELRAELTKVEEEIVTLRQV [E5G], 2.97.
On the same count and under the same terms, the result for EAEEHELRAELTKVEEEIVTLRQV [E5H] reads 2.44; that for EAEEIELRAELTKVEEEIVTLRQV [E5I], 2.98; that for EAEEFELRAELTKVEEEIVTLRQV [E5F], 2.34.
Regarding EAEEAELRAELTKVEEEIVTLRQV [E5A], the protein stability index came to 2.3.
Still for that read-out and setting: the result for EAEEDELRAELTKVEEEIVTLRQV [E5D] reads 3.91; that for EAEECELRAELTKVEEEIVTLRQV [E5C], 2.46.

The values above are taken from the supplement of paper PMC10567573.
